How the values were obtained:
A33 antigen [1] = target: T1, A33 antigen (human, UniProt Q99795); assay: direct binding to ASPC-1 cells, FITC labelled anti-human IgG, FACScan
T1 sequence: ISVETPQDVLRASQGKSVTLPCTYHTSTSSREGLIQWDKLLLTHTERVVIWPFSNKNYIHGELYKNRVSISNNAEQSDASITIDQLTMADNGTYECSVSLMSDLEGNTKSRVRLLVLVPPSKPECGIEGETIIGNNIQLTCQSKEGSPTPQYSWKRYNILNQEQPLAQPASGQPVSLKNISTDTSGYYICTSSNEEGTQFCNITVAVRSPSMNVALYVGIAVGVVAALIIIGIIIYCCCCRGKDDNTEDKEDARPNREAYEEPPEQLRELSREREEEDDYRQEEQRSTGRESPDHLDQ
Method: In the direct binding assay ASPC-1 or Colo205 cells were incubated at […] for 1 h. in the presence of various amounts of murine, chimeric or humanised A33, or non-specific antibody controls.
To confirm that the sequences obtained could combine to bind to the A33 antigen the chimeric expression plasmids pRO107 and pRO108 were transiently co-expressed in CHO-L761h cells (Cockett et al., 1990) at 200 mL scale. […] The binding of the antibody to the cells was measured using FITC labelled anti-human IgG and the bound fluorescence was detected in a FACScan analyser.

A33 antigen [2] = target: T1, A33 antigen; assay: competition assays of Example 1 (FITC-labelled murine A33 on cells, FACScan); reference
A33 antigen [3] = target: T1, A33 antigen; assay: fluorescein-labelled antibody titrated on SW1222 cells, FACScan, Scatchard plot
Method: The potency of hA33 (γ1) was compared to that of murine A33 by binding to cells of the human colerectal cancer cell line SW 1222. Fluorescently labelled conjugates of purified humanised and murine A33 were prepared to give approximately 1.5 molecules of fluorescein per antibody molecule. SW1222 cells (2.8×10⁵ per tube) were incubated with the fluorescent antibodies titrated in the range 3.57 µg/ml to 12 ng/ml in PBS with 5% foetal calf serum and 0.2% sodium azide on ice for 1.5 hours. After washing, antibody bound to the surface of the cells was detected by a FACscan (Becton Dickinson) as a fluorescent signal which was converted to numbers of antibody molecules bound per cell by calibration with fluorescent microbead standards.

B1: chimeric A33(γ1) (antibody, V domains shown)
VH: EVKLVESGGGLVKPGGSLKLSCAASGFAFSTYDMSWVRQTPEKRLEWVATISSGGSYTYYLDSVKGRFTISRDSARNTLYLQMSSLRSEDTALYYCAPTTVVPFAYWGQGTLVTVSA
VL: DIVMTQSQKFMSTSVGDRVSITCKASQNVRTVVAWYQQKPGQSPKTLIYLASNRHTGVPDRFTGSGSGTDFTLTISNVQSEDLADYFCLQHWSYPLTFGSGTKLEVKR
binding result (A33 antigen [1]): binds

B2: mA33 Fab (Fab, V domains shown)
VH: EVKLVESGGGLVKPGGSLKLSCAASGFAFSTYDMSWVRQTPEKRLEWVATISSGGSYTYYLDSVKGRFTISRDSARNTLYLQMSSLRSEDTALYYCAPTTVVPFAYWGQGTLVTVSA
VL: DIVMTQSQKFMSTSVGDRVSITCKASQNVRTVVAWYQQKPGQSPKTLIYLASNRHTGVPDRFTGSGSGTDFTLTISNVQSEDLADYFCLQHWSYPLTFGSGTKLEVKR
binding result (A33 antigen [2]): binds

B3: murine monoclonal antibody A33 (antibody, V domains shown)
VH: EVKLVESGGGLVKPGGSLKLSCAASGFAFSTYDMSWVRQTPEKRLEWVATISSGGSYTYYLDSVKGRFTISRDSARNTLYLQMSSLRSEDTALYYCAPTTVVPFAYWGQGTLVTVSA
VL: DIVMTQSQKFMSTSVGDRVSITCKASQNVRTVVAWYQQKPGQSPKTLIYLASNRHTGVPDRFTGSGSGTDFTLTISNVQSEDLADYFCLQHWSYPLTFGSGTKLEVKR
modifications: FITC or fluorescein label on the antibody where it is used as labelled competitor or in the Scatchard assay (about 1.5 molecules of fluorescein per antibody molecule)
binding result (A33 antigen [3]): binds
